Assay results reported in patent KR20140095558A (dated 2014).

B1: SC05-179 (scFv)
scFv: EVQLVESGGGLVKPGGSLGLSCAASGFFFSDYSMSWIRQAPGKGLEWLSNISGSGHSTKYAESMRGRITISRDNAKKSLSLQLNSLRAEDTAVYFCVRGGGYRMDVWGQGTTVTVSSGTGGSGGTGSGTGGSTQSALTQPRSVPGSPGQSVTISCTGTSSDVGGYNYVSWYQQHPGKAPKLMIYDVSKRPSGVPDRFSGSKSGNTASLTVSGLQAEDEADYYCSSYAGSNNFVVFGGGTKLTVL
B2: SC05-187 (scFv)
scFv: EVQLVQSGAEVKKPGESLKISCKGSGYSFTKYWIGWVRQMPGKGLEWMGIIYPGDSDTRYSPSFQGQVTISADKSISTAYLQWSSLKASDTAMYYCARGSGIATGNSFDSWGQGTLVTVSSGTGGSGGTGSGTGGSTQTVVTQEPSLTVSPGGTVTLTCASSTGAVTSGYYPNWFQQKPGQAPRALIYSTSKKHSWTPARFSGSLLGGRAALTLSGAQPEDEADYYCLLSYGGARVFGGGTKLTVL
B3: SC06-429 (scFv)
scFv: QVQLVQSGAEVKNPGESLKISCKGSGYTFTSYWIGWVRQMPGKGLEWMGSIYPGDSDTRYSPSFQGQVTISVDKSISTAYLQWSSLKASDTAMYYCARQYRAGSTTRFDPWGQGTLVTVSSGTGGSGGTGSGTGGSTDVVMTQSPLSLPVTPGEPASISCRSSQSLRHRNGNNYLDWYLQKPGQSPQLLIYLGSNRASGVPDRFSGSGSGTDFTLKISRVEAEDVGIYYCMQALQTPLTFGGGTKVEIK
B4: SC06-016 (scFv)
scFv: QVQLVQSGPEVKKPGASVTVSCKASGYSFSSYGISWVRQAPGQGLEWMGRIIPVGGNTLYSQMFQGRVTMTSDTSTSTVYLELSSLRSEDTAVYFCARDGGRWQFDYWGQGTLVTVSSGTGGSGGTGSGTGGSTDIQLTQSPSSVSASVGDRVTITCRASQGISNWLAWYQQKPGKAPELLIYAASSLQSGVPPRFSGSASGTDFTLTISSLQPEDFATYYCQQSKNFPYTFGQGTKVEIK
B5: SC06-050 (scFv)
scFv: EVQLVESGPEVKKPGASVKVSCEASGYNLDNYGITWVRQAPGQGLEWLGWISAYNAKTEYGQRLQGRVTMTTDTATSTAYLELRSLRSDDTAVYYCARVLGYRGGWYDEGDAFDVWGQGTMVTVSSGTGGSGGTGSGTGGSTDIQLTQSPSFLSASVGDRVTITCRASQGIRSHLAWYQQKAGKAPKLLIYAASTLQSGVPSRFSGSGSGTEFTLTISSLQPDDFAAYYCQQLNTYPITFGQGTRLEIK
notes: also called SC05-050
B6: SC06-432 (scFv)
scFv: QLQLQESGPGLVKPSQTLSLTCTVSGGSISSGGYYWSWIRQHPGKGLEWIGYIYYSGSTYYNPSLKSRVTISVDTSKNQFSLKLSSVTAADTAVYYCARERILDRMNDYWGQGTLVTVSSGTGGSGGTGSGTGGSTQSVVTQPPSVSGAPGQRVTISCTGSSSNIGAGYDVHWYQQLPGTAPKLLIYGNSNRPSGVPDRFSGSKSGTSASLAITGLQAEDEADYYCQSSDSSLNILFGGGTKLTVL
B7: SC06-049 (scFv)
scFv: QVQLVQSGAEVKKPGESLKISCKGSGYSFTSYWIGWVRQMPGKGLEWMGIIYPGDSDTRYSPSFQGQVTISADKSIGTAYLQWSSLKASDTAMYYCARLFRVRGGHFDSWGQGTLVTVSSGTGGSGGTGSGTGGSTQSALTQPASVSGSPGQSITISCTGTNSDVGGYNYVSWYQQHPGKAPKLLIYDVTNRPSGVSNRFSASKSGNTASLTISGLQAEDEADYYCSSFTSSSTRVFGGGTKLTVL
B8: SC06-043 (scFv)
scFv: EVQLVESGAEVKKPGESLKISCKGSGYSFTSYWIGWVRQMPGKGLEWMGIIYPGDSDTRYSPSFQGQVTISADKSISTAYLQWSSLKASDTAMYYCARRYCSGGTCSDGFDIWGQGTMVTVSSGTGGSGGTGSGTGGSTQSALTQPPSASGSPGQSVTISCTGTSSDVGGYNYVSWYQQHPGKAPKLMIYEVSKRPSGVPDRFSGSKSGNTASLTVSGLQAEDEADYYCSSYAGSNNLVFGGGTKLTVL

The binders below were run against T1, BSA (bovine serum albumin) (bovine (송아지 혈청 알부민), UniProt P02769 25-607) (assay: phage ELISA, 1% BSA coated, anti-M13 peroxidase, OD 492 nm).
T1 construct: Negative control antigen of the phage ELISA; also called 송아지 혈청 알부민
T1 sequence (P02769 25-607 limits assumed): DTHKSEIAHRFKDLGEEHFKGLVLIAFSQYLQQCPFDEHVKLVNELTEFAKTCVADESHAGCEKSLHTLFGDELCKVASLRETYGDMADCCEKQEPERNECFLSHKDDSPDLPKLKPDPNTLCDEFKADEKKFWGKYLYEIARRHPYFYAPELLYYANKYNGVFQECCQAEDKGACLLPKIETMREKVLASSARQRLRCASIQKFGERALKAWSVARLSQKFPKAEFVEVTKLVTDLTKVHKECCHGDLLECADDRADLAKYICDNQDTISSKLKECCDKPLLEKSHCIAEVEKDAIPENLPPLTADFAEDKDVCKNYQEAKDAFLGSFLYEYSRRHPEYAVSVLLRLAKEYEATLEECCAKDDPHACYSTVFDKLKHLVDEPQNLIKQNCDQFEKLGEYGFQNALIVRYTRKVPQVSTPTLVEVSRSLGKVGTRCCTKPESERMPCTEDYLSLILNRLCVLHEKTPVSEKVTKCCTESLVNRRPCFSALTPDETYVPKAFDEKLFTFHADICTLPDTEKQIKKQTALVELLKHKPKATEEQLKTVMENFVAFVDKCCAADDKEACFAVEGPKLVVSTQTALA

Binder	binding result
B1	no binding
B2	no binding
B3	no binding
B4	no binding
B5	no binding
B6	no binding
B7	no binding
B8	no binding
